Values quoted from earlier work as cited in publication PMC3012091, “The Concentration of Soluble Extracellular Amyloid-β Protein in Acute Brain Slices from CRND8 Mice” (PLoS ONE, 2010).
Like-named read-outs stand apart in the source and are kept apart here.

Columns and labels:
[1] = APP overexpressing mice
From the text: Constant turn-over of Aβ was included in some model calculations by adjusting the concentrations of Aβ at every location within the tissue after each iterative step of the model. […] E ... || The half-life of Aβ in the model is a more likely source of inaccuracy as the half-lives of Aβ species are less clear from the literature. There are few published half-life measurements from APP overexpressing mice.

[2] = human CNS
From the text: Constant turn-over of Aβ was included in some model calculations by adjusting the concentrations of Aβ at every location within the tissue after each iterative step of the model.

[3] = tested on: long-term potentiation (LTP); conditions: 50–200 pM Aβ applied to acute hippocampal slices
From the text: At these concentrations Aβ affects long-term potentiation (LTP) when applied to acute hippocampal slices.

[4] = postmortem extraction of Aβ from brain tissue

Substance | half-life ([1]; in vivo dialysis) | half-life of Aβ [2] | effect on LTP [3] | half-life [1, 4]
Amyloid-β protein [Aβ] | 4 h | 8 to 9 h | both inhibition and enhancement | –
Aβ1–40: amyloid-β protein 1–40, literature half-life only | – | – | – | ≤ 0.7 h
Aβ1–42: endogenous soluble extracellular amyloid-β protein 1–42 of CRND8 mice, measured by human beta amyloid(1–42) ELISA | – | – | – | ≤ 1.7 h
